Assays:
Experiment in all cases: IEDB peptide-MHC binding, purified MHC/competitive/radioactivity; filed as Kd, often an IC50 or EC50 that approximates it; ≥ and ≤ were set here for values at or beyond the usual limits of such assays
HLA-A*03:01 = biological target: HLA-A*03:01
HLA-A*11:01 = biological target: HLA-A*11:01
HLA-A*31:01 = biological target: HLA-A*31:01
HLA-A*68:01 = biological target: HLA-A*68:01
HLA-A*33:01 = biological target: HLA-A*33:01
[1] = source organism: SARS coronavirus Tor2
[2] = source organism: Mammarenavirus machupoense
[3] = source organism: Mammarenavirus guanaritoense
[4] = source organism: Vaccinia virus Copenhagen
[5] = source organism: Vaccinia virus WR
[6] = source organism: Vaccinia virus
[7] = source organism: Triticum aestivum

Sequence ALSEAREHLK has a Kd (HLA-A*03:01; [1]) of 0.0806 µM, a Kd (HLA-A*11:01; [1]) of 0.141 µM and a Kd (HLA-A*31:01; [1]) of 5.32 µM. The Kd (HLA-A*68:01; [1]) was 2.96 µM and the Kd (HLA-A*33:01; [1]) was ≥ 70 µM.

In the case of LNNSFYYMR, the Kd (HLA-A*03:01; [2]) is reported as ≥ 78 µM, the Kd (HLA-A*11:01; [2]) is reported as 5.88 µM and the Kd (HLA-A*31:01; [2]) is reported as 0.00464 µM. The Kd (HLA-A*68:01; [2]) was 0.0153 µM and the Kd (HLA-A*33:01; [2]) was ≥ 21.7 µM.

In the case of PCPLPHRLDR, the Kd (HLA-A*03:01; [3]) is reported as ≥ 70 µM, the Kd (HLA-A*11:01; [3]) is reported as ≥ 69.7 µM and the Kd (HLA-A*31:01; [3]) is reported as 2.94 µM. The Kd (HLA-A*68:01; [3]) was ≥ 31.1 µM and the Kd (HLA-A*33:01; [3]) was ≥ 21.8 µM.

With LLNVTYNIK the Kd (HLA-A*03:01; [4]) was 7.7 µM, the Kd (HLA-A*11:01; [4]) was 4.83 µM and the Kd (HLA-A*31:01; [4]) was ≥ 77.9 µM. The Kd (HLA-A*68:01; [4]) was 11.3 µM and the Kd (HLA-A*33:01; [4]) was ≥ 77.7 µM.

DVSLIIEYK gave a Kd (HLA-A*03:01; [5]) of 16.1 µM, a Kd (HLA-A*11:01; [5]) of 0.152 µM and a Kd (HLA-A*31:01; [5]) of 0.0722 µM. It also gave a Kd (HLA-A*68:01; [5]) of 0.00357 µM and a Kd (HLA-A*33:01; [5]) of 0.111 µM.

With DMQKFTILEY the Kd (HLA-A*03:01; [5]) was ≥ 53.5 µM, the Kd (HLA-A*11:01; [5]) was 3.53 µM and the Kd (HLA-A*31:01; [5]) was ≥ 70 µM. For the same sequence, the Kd (HLA-A*68:01; [5]) was ≥ 24.5 µM and the Kd (HLA-A*33:01; [5]) was ≥ 70 µM.

LIDTTSRELK showed a Kd (HLA-A*03:01; [5]) of 0.0389 µM, a Kd (HLA-A*11:01; [5]) of 0.162 µM and a Kd (HLA-A*31:01; [5]) of 0.147 µM. For the same sequence, the Kd (HLA-A*68:01; [5]) was 0.432 µM and the Kd (HLA-A*33:01; [5]) was 0.716 µM.

For ISQFSYKELY, the Kd (HLA-A*03:01; [5]) was 5.72 µM, the Kd (HLA-A*11:01; [5]) was 1.25 µM and the Kd (HLA-A*31:01; [5]) was 9.58 µM. For the same sequence, the Kd (HLA-A*68:01; [5]) was 7.76 µM and the Kd (HLA-A*33:01; [5]) was ≥ 46.8 µM.

In the case of TSCSKNEAEK, the Kd (HLA-A*03:01; [5]) is reported as 3.8 µM, the Kd (HLA-A*11:01; [5]) is reported as 0.165 µM and the Kd (HLA-A*31:01; [5]) is reported as 5.74 µM. The Kd (HLA-A*68:01; [5]) was 0.385 µM and the Kd (HLA-A*33:01; [5]) was ≥ 70 µM.

Work on ISELSRLRY yielded a Kd (HLA-A*03:01; [5]) of 6.57 µM, a Kd (HLA-A*11:01; [5]) of 10.8 µM and a Kd (HLA-A*31:01; [5]) of 5.37 µM. The Kd (HLA-A*68:01; [5]) was ≥ 22.7 µM and the Kd (HLA-A*33:01; [5]) was ≥ 77.7 µM.

For YTYDRVDIYY, the Kd (HLA-A*03:01; [5]) was 0.0974 µM, the Kd (HLA-A*11:01; [5]) was 0.00241 µM and the Kd (HLA-A*31:01; [5]) was 11 µM. The Kd (HLA-A*68:01; [5]) was 0.00096 µM and the Kd (HLA-A*33:01; [5]) was 1.17 µM.

With TVVRDFENY the Kd (HLA-A*03:01; [5]) was ≥ 63 µM, the Kd (HLA-A*11:01; [5]) was 1.21 µM and the Kd (HLA-A*31:01; [5]) was ≥ 77.9 µM. The Kd (HLA-A*68:01; [5]) was 1.1 µM and the Kd (HLA-A*33:01; [5]) was ≥ 77.7 µM.

NTKSDIDVIK was tested, and the Kd (HLA-A*03:01; [5]) was 8.26 µM, the Kd (HLA-A*11:01; [5]) was 0.0684 µM and the Kd (HLA-A*31:01; [5]) was 4.03 µM. The Kd (HLA-A*68:01; [5]) was 0.000547 µM and the Kd (HLA-A*33:01; [5]) was 0.97 µM.

With VTSSGTIYK the Kd (HLA-A*03:01; [6]) was 0.00808 µM, the Kd (HLA-A*11:01; [6]) was 0.000595 µM and the Kd (HLA-A*31:01; [6]) was 0.000577 µM. For the same sequence, the Kd (HLA-A*68:01; [6]) was 0.0168 µM and the Kd (HLA-A*33:01; [6]) was 0.0102 µM.

KLLQTLVLK showed a Kd (HLA-A*03:01; [1]) of 0.863 µM, a Kd (HLA-A*11:01; [1]) of 1.07 µM and a Kd (HLA-A*31:01; [1]) of 2.48 µM. The Kd (HLA-A*68:01; [1]) was ≥ 39.4 µM and the Kd (HLA-A*33:01; [1]) was ≥ 44.9 µM.

Work on HAIILHQQQK yielded a Kd (HLA-A*03:01; [7]) of 1.27 µM, a Kd (HLA-A*11:01; [7]) of 1.13 µM and a Kd (HLA-A*31:01; [7]) of 11 µM. The Kd (HLA-A*68:01; [7]) was 0.0104 µM and the Kd (HLA-A*33:01; [7]) was ≥ 44.4 µM.

Reference: the Immune Epitope Database (IEDB)
